Assay [1] has as its target C-terminal part of SiaA including the PP2C-like phosphatase domain (SiaA-PP2C, amino acids 386-663) (Pseudomonas aeruginosa). Kind of assay: SEC; size-exclusion chromatography of SiaA-PP2C alone; elution compared with markers. On the technique in general: In gel filtration, larger molecules generally elute earlier.
Assay [2] addresses SiaC (Pseudomonas aeruginosa). The experiment in a line: SEC; SiaB and SiaC mixed in equal molar ratio, incubated at room temperature for 1 h, without ATP and MgCl2; Hiload 16/600 Superdex 200; peaks analysed by SDS-PAGE.
The target of assay [3] is T1, SiaA-PP2C (Pseudomonas aeruginosa, UniProt Q9I6W0).
T1 construct: gene PA0172; C-terminal PP2C phosphatase domain, residues 386-663, His-tagged (pNIC vectors), E. coli BL21(DE3) Rosetta; ~33 kDa monomer, homodimer (66 kDa by SEC)
The experiment in a line: pNPP phosphatase assay, absorbance […] nm. Format: biochemical. Conditions: 20 mM MgCl2, 20 mM Tris-HCl pH 7.5, 150 mM NaCl, 37°C; 0.5-5 mM pNPP.

Assay [4] concerns the target T1, SiaA-PP2C. The experiment in a line: pNPP phosphatase assay, absorbance […] nm. Format: biochemical. Conditions: read-out: % activity remaining at 0.1 mM fumonisin B1.

Experimental findings from paper PMC7647112, “The SiaABC threonine phosphorylation pathway controls biofilm formation in response to carbon availability in Pseudomonas aeruginosa” (PLoS ONE, 2020) are described below.

A word on the stoichiometry N: it is a count of units in the complex or per binding partner. In the case of “C-terminal part of SiaA including the PP2C-like phosphatase domain (SiaA-PP2C, amino acids 386-663) (domain or fragment)”, the stoichiometry N in assay [1] turned out to be 2. As to SiaB (enzyme), the stoichiometry N (SiaB:SiaC (2:2 complex)) in assay [2] turned out to be 1. In the case of `O=[N+]([O-])c1ccc(OP(=O)(O)O)cc1` [para-nitrophenyl phosphate], the “pNPP phosphatase assay, absorbance 405 nm” value on SiaA-PP2C [3] is recorded as “phosphatase activity of SiaA-PP2C was assessed using para-nitrophenyl phosphate (pNPP)”. As a reminder, the remaining activity is the signal under treatment as a percentage of the control signal. For the compound `CCCC[C@@H](C)[C@@H](OC(=O)C[C@@H](CC(=O)O)C(=O)O)[C@H](C[C@@H](C)C[C@H](O)CCCC[C@@H](O)C[C@H](O)[C@H](C)N)OC(=O)C[C@@H](CC(=O)O)C(=O)O` [fumonisin B1], the remaining activity at 100 µM on SiaA-PP2C [4] is 35.5%.
